# From paper PMC2879517 (Nucleic Acids Research, 2010)
# B1: DdrB from D. geothermalis labeled with SeMet (natural protein)
# chain: MLHIEFITDLGAKVTVDVESADKLLDVQRQYGRLGWTSGEVPVGGYQFPLENEPDFDWSLIGARKWTNPEGEEMILHRGHAYRRRELEAVDSRKMKLPAAVKYSRGAKNTDPEHVREKADGEFEYVTLAIFRGGKRQERYAVPGSNRPQAGAPARSAATRAQGARPGAVAVQDEETPF
# modifications: selenomethionine (SeMet) in place of methionine
# B2: DdrB (DNA damage response B) from D. geothermalis, native, untagged (natural protein)
# chain: B1 chain
# What was measured:
# [1] = molecular target: the molecule itself; assay: crystal structure
# [2] = molecular target: the molecule itself; assay: SEC
Protein,stoichiometry N [1],stoichiometry N [2]
B1,5,–
B2,–,5
